In patent US20230250154A1 (CYTONICS, published 2023):

T1: MMP1 (human, UniProt P03956 100-469, limits assumed)
T1 sequence (looked up): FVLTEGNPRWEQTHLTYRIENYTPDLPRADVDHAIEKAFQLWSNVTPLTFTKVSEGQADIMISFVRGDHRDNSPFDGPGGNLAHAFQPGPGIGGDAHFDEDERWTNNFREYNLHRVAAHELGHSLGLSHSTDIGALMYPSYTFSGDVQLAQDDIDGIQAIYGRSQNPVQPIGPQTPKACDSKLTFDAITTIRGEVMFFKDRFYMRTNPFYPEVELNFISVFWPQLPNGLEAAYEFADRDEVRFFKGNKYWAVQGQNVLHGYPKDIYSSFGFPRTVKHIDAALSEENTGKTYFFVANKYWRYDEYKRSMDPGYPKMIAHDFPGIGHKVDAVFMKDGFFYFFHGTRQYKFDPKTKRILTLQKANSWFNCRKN

T2: ADAMTS4 (human, UniProt O75173 213-685, limits assumed)
T2 sequence (looked up): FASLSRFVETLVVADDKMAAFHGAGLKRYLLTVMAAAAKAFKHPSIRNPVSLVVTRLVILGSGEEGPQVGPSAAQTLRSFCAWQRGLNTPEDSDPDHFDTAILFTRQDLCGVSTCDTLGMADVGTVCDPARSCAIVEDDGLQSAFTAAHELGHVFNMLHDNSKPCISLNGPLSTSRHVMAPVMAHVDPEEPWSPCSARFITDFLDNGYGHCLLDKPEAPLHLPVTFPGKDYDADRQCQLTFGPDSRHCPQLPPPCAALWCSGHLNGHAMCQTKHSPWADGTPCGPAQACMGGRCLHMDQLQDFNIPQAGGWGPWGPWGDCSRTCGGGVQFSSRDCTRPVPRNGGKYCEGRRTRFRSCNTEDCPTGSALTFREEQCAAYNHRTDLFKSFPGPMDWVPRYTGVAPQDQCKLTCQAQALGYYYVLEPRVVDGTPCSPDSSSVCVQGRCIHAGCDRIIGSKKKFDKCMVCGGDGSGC

T3: MMP2 (human, UniProt P08253 110-660, limits assumed)
T3 sequence (looked up): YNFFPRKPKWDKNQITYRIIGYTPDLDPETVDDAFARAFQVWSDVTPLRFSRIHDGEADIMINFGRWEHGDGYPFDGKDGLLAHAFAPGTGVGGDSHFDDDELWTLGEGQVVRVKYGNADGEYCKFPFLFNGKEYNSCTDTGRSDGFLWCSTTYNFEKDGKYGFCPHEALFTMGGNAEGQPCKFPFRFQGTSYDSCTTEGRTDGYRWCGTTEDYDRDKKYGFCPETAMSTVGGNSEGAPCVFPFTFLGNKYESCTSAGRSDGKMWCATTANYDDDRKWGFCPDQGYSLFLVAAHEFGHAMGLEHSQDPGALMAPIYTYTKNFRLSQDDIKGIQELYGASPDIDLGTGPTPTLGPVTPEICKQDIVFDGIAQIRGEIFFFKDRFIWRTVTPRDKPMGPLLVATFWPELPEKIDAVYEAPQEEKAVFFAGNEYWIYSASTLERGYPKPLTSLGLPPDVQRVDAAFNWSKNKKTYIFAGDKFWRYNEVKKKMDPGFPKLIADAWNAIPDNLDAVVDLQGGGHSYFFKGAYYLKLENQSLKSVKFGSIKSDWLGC

T4: ADAMTS5 (human, UniProt Q9UNA0 262-622, limits assumed)
T4 sequence (looked up): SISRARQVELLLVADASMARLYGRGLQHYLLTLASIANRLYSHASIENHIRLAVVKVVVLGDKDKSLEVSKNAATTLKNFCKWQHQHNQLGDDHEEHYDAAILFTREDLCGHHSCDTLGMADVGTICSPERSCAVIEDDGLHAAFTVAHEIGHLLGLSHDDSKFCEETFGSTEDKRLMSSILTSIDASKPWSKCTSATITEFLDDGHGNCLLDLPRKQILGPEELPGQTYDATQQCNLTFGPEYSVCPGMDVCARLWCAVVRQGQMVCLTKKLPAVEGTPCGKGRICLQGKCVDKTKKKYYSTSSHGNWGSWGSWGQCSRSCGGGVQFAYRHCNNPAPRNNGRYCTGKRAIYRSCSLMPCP


Columns and labels:
Assay in all cases: cell-based or functional assay
MMP13 = MMP13 (human, UniProt P45452 104-471, limits assumed)
MMP1 = biological target: T1, MMP1
ADAMTS4 = biological target: T2, ADAMTS4
MMP3 = MMP3 (human, UniProt P08254 100-477, limits assumed)
MMP9 = MMP9 (human, UniProt P14780 107-707, limits assumed)
MMP8 = MMP8 (human, UniProt P22894 101-467, limits assumed)
MMP2 = biological target: T3, MMP2
ADAMTS5 = biological target: T4, ADAMTS5

Sequence of MMP9 (P14780 107-707 limits assumed): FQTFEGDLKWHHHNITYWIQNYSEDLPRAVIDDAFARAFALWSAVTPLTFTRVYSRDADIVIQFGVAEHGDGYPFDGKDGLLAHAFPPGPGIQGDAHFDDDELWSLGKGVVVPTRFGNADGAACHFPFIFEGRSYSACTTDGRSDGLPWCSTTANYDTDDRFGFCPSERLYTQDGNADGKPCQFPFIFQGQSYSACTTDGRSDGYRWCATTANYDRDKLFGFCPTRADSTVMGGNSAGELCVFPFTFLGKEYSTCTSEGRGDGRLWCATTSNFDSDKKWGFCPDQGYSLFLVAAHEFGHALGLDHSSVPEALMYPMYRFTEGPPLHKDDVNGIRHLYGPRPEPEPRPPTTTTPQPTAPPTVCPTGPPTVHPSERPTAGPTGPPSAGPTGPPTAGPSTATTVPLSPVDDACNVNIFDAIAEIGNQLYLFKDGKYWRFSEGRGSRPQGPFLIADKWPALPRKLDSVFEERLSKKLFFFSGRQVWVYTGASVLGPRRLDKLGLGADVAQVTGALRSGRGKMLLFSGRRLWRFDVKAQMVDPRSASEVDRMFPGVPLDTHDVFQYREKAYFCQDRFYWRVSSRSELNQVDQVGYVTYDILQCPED
Sequence of MMP8 (P22894 101-467 limits assumed): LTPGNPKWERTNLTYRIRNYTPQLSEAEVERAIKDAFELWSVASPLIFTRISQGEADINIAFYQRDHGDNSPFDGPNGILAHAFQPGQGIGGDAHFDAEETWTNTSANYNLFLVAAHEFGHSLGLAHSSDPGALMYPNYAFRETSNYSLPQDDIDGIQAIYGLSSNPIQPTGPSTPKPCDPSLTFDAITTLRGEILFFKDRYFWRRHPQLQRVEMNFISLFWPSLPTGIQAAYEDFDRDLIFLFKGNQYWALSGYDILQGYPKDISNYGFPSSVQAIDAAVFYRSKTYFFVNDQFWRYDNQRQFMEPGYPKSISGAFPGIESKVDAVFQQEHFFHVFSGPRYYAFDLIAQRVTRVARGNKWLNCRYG
Sequence of MMP3 (P08254 100-477 limits assumed): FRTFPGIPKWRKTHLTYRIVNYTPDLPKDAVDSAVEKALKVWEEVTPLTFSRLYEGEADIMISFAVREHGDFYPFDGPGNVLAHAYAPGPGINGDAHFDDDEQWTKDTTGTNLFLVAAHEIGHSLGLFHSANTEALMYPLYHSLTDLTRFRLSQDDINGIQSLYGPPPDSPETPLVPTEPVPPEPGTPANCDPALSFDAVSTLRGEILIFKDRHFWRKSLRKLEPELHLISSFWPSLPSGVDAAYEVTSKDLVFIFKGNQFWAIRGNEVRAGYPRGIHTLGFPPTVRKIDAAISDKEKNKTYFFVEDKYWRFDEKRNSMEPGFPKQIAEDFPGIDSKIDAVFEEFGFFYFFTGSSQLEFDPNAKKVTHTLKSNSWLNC

Protease Inhibition (% of WT) (MMP13)	Protease Inhibition (% of WT) (MMP1)	Protease Inhibition (% of WT) (ADAMTS4)	Protease Inhibition (% of WT) (MMP3)	Protease Inhibition (% of WT) (MMP9)	Protease Inhibition (% of WT) (MMP8)	Protease Inhibition (% of WT) (MMP2)	Protease Inhibition (% of WT) (ADAMTS5)	Binder
90 % of WT	170 % of WT	210 % of WT	80 % of WT	50 % of WT	160 % of WT	110 % of WT	250 % of WT	Variant A2M, bait region SEQ ID NO 92 (other) SVSGKPQYMVLVPSLLHTETTEKGCVLLSYLNETVTVSASLESVRGNRSLFTDLEAENDVLHCVAFAVPKSSSNEEVMFLTVQVKGPTQEFKKRTTVMVKNEDSLVFVQTDKSIYKPGQTVKFRVVSMDENFHPLNELIPLVYIQDPKGNRIAQWQSFQLEGGLKQFSFPLSSEPFQGSYKVVVQKKSGGRTEHPFTVEEFVLPKFEVQVTVPKIITILEEEMNVSVCGLYTYGKPVPGHVTVSICRKYSDASDCHGEDSQAFCEKFSGQLNSHGCFYQQVKTKVFQLKRKEYEMKLHTEAQIQEEGTVVELTGRQSSEITRTITKLSFVKVDSHFRQGIPFFGQVRLVDGKGVPIPNKVIFIRGNEANYYSNATTDEHGLVQFSINTTNVMGTSLTVRVNYKDRSPCYGYQWVSEEHEEAHHTAYLVFSPSKSFVHLEPMSHELPCGHTQTVQAHYILNGGTLLGLKKLSFYYLIMAKGGIVRTGTHGLLVKQEDMKGHFSISIPVKSDIAPVARLLIYAVLPTGDVIGDSAKYDVENCLANKVDLSFSPSQSLPASHAHLRVTAAPQSVCALRAVDQSVLLMKPDAELSASSVYNLLPEKDLTGFPGPLNDQDDEDCINRHNVYINGITYTPVSSTNEKDMYSFLEDMGLKAFTNSKIRKPKMCPQLEQYEMHGPEGLRVGTAQEAGEGFYESDVMGRGHARLVHVEEPHTKLLRKYFPETWIWDLVVVNSAGVAEVGVTVPDTITEWKAGAFCLSEDAGLGISSTASLRAFQPFFVELTMPYSVIRGEAFTLKATVLNYLPKCIRVSVQLEASPAFLAVPVEKEQAPHCICANGRQTVSWAVTPKSLGNVNFTVSAEALESQELCGTEVPSVPEHGRKDTVIKPLLVEPEGLEKETTFNSLLCPSGGEVSEELSLKLPPNVVEESARASVSVLGDILGSAMQNTQNLLQMPYGCGEQNMVLFAPNIYVLDYLNETQQLTPEIKSKAIGYLNTGYQRQLNYKHYDGSYSTFGERYGRNQGNTWLTAFVLKTFAQARAYIFIDEAHITQALIWLSQRQKDNGCFRSSGSLLNNAIKGGVEDEVTLSAYITIALLEIPLTVTHPVVRNALFCLESAWKTAQEGDHGSHVYTKALLAYAFALAGNQDKRKEVLKSLNEEAVKKDNSVHWERPQKPKAPVGHFYEPQAPSAEVEMTSYVLLAYLTAQPAPTSEDLTSATNIVKWITKQQNAQGGFSSTQDTVVALHALSKYGAATFTRTGKAAQVTIQSSGTFSSKFQVDNNNRLLLQQVSLPELPGEYSMKVTGEGCVYLQTSLKYNILPEKEEFPFALGVQTLPQTCDEPKAHTSFQISLSVSYTGSRSASNMAIVDVKMVSGFIPLKPTVKMLERSNHVSRTEVSSNHVLIYLDKVSNQTLSLFFTVLQDVPVRDLKPAIVKVYDYYETDEFAIAEYNAPCSKDLGNADYKDDDDKGASHHHHHH
150 % of WT	150 % of WT	160 % of WT	40 % of WT	70 % of WT	40 % of WT	100 % of WT	170 % of WT	Variant A2M, bait region SEQ ID NO 87 (other) SVSGKPQYMVLVPSLLHTETTEKGCVLLSYLNETVTVSASLESVRGNRSLFTDLEAENDVLHCVAFAVPKSSSNEEVMFLTVQVKGPTQEFKKRTTVMVKNEDSLVFVQTDKSIYKPGQTVKFRVVSMDENFHPLNELIPLVYIQDPKGNRIAQWQSFQLEGGLKQFSFPLSSEPFQGSYKVVVQKKSGGRTEHPFTVEEFVLPKFEVQVTVPKIITILEEEMNVSVCGLYTYGKPVPGHVTVSICRKYSDASDCHGEDSQAFCEKFSGQLNSHGCFYQQVKTKVFQLKRKEYEMKLHTEAQIQEEGTVVELTGRQSSEITRTITKLSFVKVDSHFRQGIPFFGQVRLVDGKGVPIPNKVIFIRGNEANYYSNATTDEHGLVQFSINTTNVMGTSLTVRVNYKDRSPCYGYQWVSEEHEEAHHTAYLVFSPSKSFVHLEPMSHELPCGHTQTVQAHYILNGGTLLGLKKLSFYYLIMAKGGIVRTGTHGLLVKQEDMKGHFSISIPVKSDIAPVARLLIYAVLPTGDVIGDSAKYDVENCLANKVDLSFSPSQSLPASHAHLRVTAAPQSVCALRAVDQSVLLMKPDAELSASSVYNLLPEKDLTGFPGPLNDQDDEDCINRHNVYINGITYTPVSSTNEKDMYSFLEDMGLKAFTNSKIRKPKMCPQLEQYEMHGPEGLRVGKEEEGLGSSELEGRGSTAQEAGEGKLRKYFPETWIWDLVVVNSAGVAEVGVTVPDTITEWKAGAFCLSEDAGLGISSTASLRAFQPFFVELTMPYSVIRGEAFTLKATVLNYLPKCIRVSVQLEASPAFLAVPVEKEQAPHCICANGRQTVSWAVTPKSLGNVNFTVSAEALESQELCGTEVPSVPEHGRKDTVIKPLLVEPEGLEKETTFNSLLCPSGGEVSEELSLKLPPNVVEESARASVSVLGDILGSAMQNTQNLLQMPYGCGEQNMVLFAPNIYVLDYLNETQQLTPEIKSKAIGYLNTGYQRQLNYKHYDGSYSTFGERYGRNQGNTWLTAFVLKTFAQARAYIFIDEAHITQALIWLSQRQKDNGCFRSSGSLLNNAIKGGVEDEVTLSAYITIALLEIPLTVTHPVVRNALFCLESAWKTAQEGDHGSHVYTKALLAYAFALAGNQDKRKEVLKSLNEEAVKKDNSVHWERPQKPKAPVGHFYEPQAPSAEVEMTSYVLLAYLTAQPAPTSEDLTSATNIVKWITKQQNAQGGFSSTQDTVVALHALSKYGAATFTRTGKAAQVTIQSSGTFSSKFQVDNNNRLLLQQVSLPELPGEYSMKVTGEGCVYLQTSLKYNILPEKEEFPFALGVQTLPQTCDEPKAHTSFQISLSVSYTGSRSASNMAIVDVKMVSGFIPLKPTVKMLERSNHVSRTEVSSNHVLIYLDKVSNQTLSLFFTVLQDVPVRDLKPAIVKVYDYYETDEFAIAEYNAPCSKDLGNADYKDDDDKGASHHHHHH
